Reference: article PMC4169592

Target: EGFP-Vinexin β (mouse)
Assay: FRET or BRET; acceptor photobleaching FRET in stress granules of live COS-7 cells; EGFP donor, mCherry RFP acceptor

**Q.** Which FRET efficiency does the source give for RFP-CPEB4 (natural protein) here?
**A.** The FRET efficiency was 14.5%.
